# Source: paper PMC8776815, “Rational design of a helical peptide inhibitor targeting c-Myb–KIX interaction” (Scientific Reports, 2022)
# Positions count from the first letter of the chain named. In names and notes the source's numbering stands. No end group written: not given here.
# B1: Myb32 wild type (residues 284-315 of mouse c-Myb, transactivation domain fragment) (peptide)
# chain: GYNDEDPEKEKRIKELELLLMSTENELKGQQAL
# notes: additional Gly residue left at the N-terminus after thrombin cleavage; Myb32, residues 284-315 of mouse c-Myb; 33-residue peptide (Gly + 32 residues); also called WT; wild-type Myb32; source: E. coli BL21(DE3), purified (Ni-NTA, thrombin cleavage on the column, DEAE anion exchange); not shown: His6, N-terminal, cleaved; GB1, N-terminal, cleaved
# B2: Myb32 K291R (peptide)
# chain: B1 chain with K9R
# notes: additional Gly residue left at the N-terminus after thrombin cleavage; Myb32, residues 284-315 of mouse c-Myb; source: E. coli BL21(DE3), purified (Ni-NTA, thrombin cleavage on the column, DEAE anion exchange); not shown: His6, N-terminal, cleaved; GB1, N-terminal, cleaved
# B3: Myb32 K296R (peptide)
# chain: B1 chain with K14R
# notes: as for B2
# B4: Myb32 K291R/K293R/K296R triple mutant (RRR) (peptide)
# chain: B1 chain with K9R, K11R, K14R
# notes: additional Gly residue left at the N-terminus after thrombin cleavage; Myb32, residues 284-315 of mouse c-Myb; also called RRR Myb32 mutant; source: E. coli BL21(DE3), purified (Ni-NTA, thrombin cleavage on the column, DEAE anion exchange); not shown: His6, N-terminal, cleaved; GB1, N-terminal, cleaved
# B5: Myb32 K293R (peptide)
# chain: B1 chain with K11R
# notes: as for B2
# B6: Myb32 K291R/K296R (peptide)
# chain: B1 chain with K9R, K14R
# notes: as for B2
# B7: Myb32 K291R/K293R (peptide)
# chain: B1 chain with K9R, K11R
# notes: as for B2
# B8: Myb32 E292L (peptide)
# chain: B1 chain with E10L
# notes: as for B2
# B9: Myb32 K293R/K296R (peptide)
# chain: B1 chain with K11R, K14R
# notes: as for B2
# B10: His-tag-GB1-Myb32 (wild-type Myb32 with a His-tag and GB1) (peptide)
# chain: YNDEDPEKEKRIKELELLLMSTENELKGQQAL
# notes: Myb32, residues 284-315 of mouse c-Myb; 6xHis-tag, B1 domain of protein G and the thrombin cleavage site stand before Myb32; coupled to the chip by amine coupling; also called immobilized wild-type Myb32; His-tagged Myb32 protein; source: E. coli BL21(DE3), purified (Ni-NTA, eluted with imidazole); not shown: His6, N-terminal, kept; GB1, N-terminal, kept
# Target: T1, KIX domain of CBP in the presence of the MLL TAD peptide MLL28 (two-fold excess of MLL28 over KIX) (mouse | human, UniProt P45481 586-672; Q03164 2842-2869)
# T1 construct: KIX domain, residues 586-672 of mouse CBP; single Tyr residue attached at the C-terminus of MLL28 for concentration determination; A Gly left at the N-terminus after thrombin cleavage is stated only for Myb32, it is likely on MLL28 too; also called KIX and MLL28; source: E. coli BL21(DE3)pLysS (KIX) and BL21(DE3) (MLL28), each purified; 45 uM KIX and 90 uM MLL28 together in the ITC cell; not …
# Assay: ITC; 600 uM Myb32 peptide titrated into the cell with 45 uM KIX and 90 uM MLL28; 20 mM Tris-acetate pH 7.0, 50 mM NaCl; 30 °C
# Settings: both partners purified
# T1 sequence (P45481 586-672, chain 1 of 2): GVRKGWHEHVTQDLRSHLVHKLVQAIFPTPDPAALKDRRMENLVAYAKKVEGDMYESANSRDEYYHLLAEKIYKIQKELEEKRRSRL
# T1 sequence (Q03164 other isoform, or with tags, fused parts or gaps, chain 2 of 2): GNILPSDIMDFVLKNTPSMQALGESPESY
Kd [nM],dH [kcal mol^–1],stoichiometry N,Molecule
220,-6.49,0.97,B1
210,-6.46,0.97,B2
160,-6.3,0.96,B3
80,-7.57,0.99,B4
–,-7.03,0.94,B5
120,-7.56,0.9,B6
140,-7.31,0.84,B7
480,-5.45,0.92,B8
130,-7.31,0.96,B9

# Target: KIX
# Assay: not given
# Settings: previous studies; read-out: Kd (dissociation constant for KIX binding); cited from earlier work
# From the text: Although the c-Myb TAD is intrinsically disordered, the region of residues 284–315, called Myb32, has a high helical propensity. […] Moreover, Myb32 is known to bind KIX by a conformational selection mechanism. This information may provide a clue to improve the binding affinity to KIX[38],[40]. Therefore, Myb32 is a suitable template for designing peptide inhibitors.
row,Molecule,Kd [nM]
1,"c-Myb TAD full length: full-length transactivation domain of c-Myb (residues 275–327), intrinsically disordered (PAAAAIQRHYNDEDPEKEKRIKELELLLMSTENELKGQQVLPTQNHTCSYPGW; transactivation domain; UniProt P10242 275-327, looked up, fragment)",500

# Target: T2, KIX domain of CREB-binding protein (residues 586-672 of mouse CBP) without a His-tag (mouse, UniProt P45481 586-672)
# T2 construct: KIX domain, residues 586-672 of mouse CBP; the thrombin site ends in LVPR followed by G586 of KIX; also called KIX without a His-tag; source: E. coli BL21(DE3)pLysS, purified (Ni-NTA, thrombin cleavage, size exclusion chromatography); not shown: His6, N-terminal, cleaved
# Assay: SPR; competitive binding assay (OpenSPR, localized SPR); His-tag-GB1-Myb32 wild type immobilised by amine coupling; 1 uM KIX without His-tag injected alone or mixed with inhibitor (1 nM to 300 uM); 20 mM sodium phosphate pH 7.0, 300 mM NaCl; 30 °C
# Settings: both partners purified
# T2 sequence (P45481 586-672): as the sequence (P45481 586-672, chain 1 of 2) above
binding result,IC50 [nM],Molecule
binds,–,B10
–,10900,B1
–,5600,B4

# Target: T1, KIX domain of CBP in the presence of …
# Assay: ITC; under the conditions of the SPR measurement: 20 mM sodium phosphate pH 7.0, 300 mM NaCl; in the presence of MLL28 (all ITC experiments)
# Settings: both partners purified
Kd [nM],dH [kcal mol^–1],stoichiometry N,Molecule
510,-13.8,0.99,B1
260,-14.8,0.99,B4

# Target: CBP KIX (Mus musculus) (UniProt P45481)
# Assay: not given
# Settings: cited from earlier work
# Sequence of CBP KIX (Mus musculus) (P45481 583-668): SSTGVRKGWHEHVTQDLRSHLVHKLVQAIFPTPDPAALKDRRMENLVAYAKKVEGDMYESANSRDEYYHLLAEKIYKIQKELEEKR
row,Molecule,Kd [nM]
1,c-Myb TAD TAD (from UniProt P06876),500

# Target: T3, KIX domain of CBP (c-Myb/pKID site) (Mus musculus, UniProt P45481)
# T3 construct: KIX (residues 586–672 of mouse CBP); 6xHis-tag with thrombin cleavage site (MGHHHHHHSSGLVPR) (N); made in house; host or cells: E. coli BL21(DE3)pLysS for KIX; E. coli BL21(DE3) for MLL28
# Assay: Isothermal titration calorimetry (ITC) of KIX binding of Myb32 peptides
# Settings: 20 mM Tris-acetate pH 7.0, 50 mM NaCl, 30 °C, 600 μM Myb32 into 45 µM KIX + 90 µM MLL28, mean ± standard error, more than two measurements, read-out: Kd (dissociation constant for KIX binding)
# From the text: Next, we performed isothermal titration calorimetry (ITC) measurements to investigate the KIX-binding affinity of the peptides. Although Myb32 primarily binds the c-Myb/pKID site on KIX, previous studies have shown that it also binds the MLL site, located opposite the c-Myb/pKID site[38]. Therefore, to prevent the secondary binding of Myb32, we conducted all ITC experiments in the presence of the MLL TAD peptide (residues 2842–2869, called MLL28) with a two-fold excess of MLL over KIX[38].
# ITC measurements were conducted using a MicroCal iTC200 (Malvern Panalytical Ltd., Malvern, United Kingdom) in ITC buffer at 30 °C. All samples were dialyzed sufficiently before the experiments. 600 μM Myb32 was titrated into the cell containing 45 µM KIX and 90 µM MLL28. The data were analyzed using Origin software (OriginLab Co., Northampton, MA, USA) to obtain the Kd, stoichiometry of binding (N), and enthalpy change upon binding (ΔH). The Gibbs free energy change (ΔG) and entropy change (ΔS) upon binding were obtained as follows:3 ΔG=-RTln1/Kd 4 ΔS=ΔH-ΔG/T where R is the gas constant, and T is the temperature.
row,Kd [nM],Molecule
1,220 ± 10,GYNDEDPEKERRIKELELLLMSTENELKGQQAL [K293R]
2,220 ± 10,GYNDEDPEKEKRIKELELLLMSTENELKGQQAL [WT]
